From the supplement of paper PMC9170038

Test system: MS2 coat protein
Assay: apparent KD of MS2 coat protein; designed switch direction (-1 OFF switch, 1 ON switch): -1; higher = weaker reporter binding
How it was run: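 Normalised cluster fluorescence was curve-fitted, and each design's median over clusters is its apparent KD. Before this, SNAP-549-labelled MS2 coat protein was titrated from 0.7 or 1.5 nM, doubling to 3 µM, over RNA switches transcribed on Illumina chips by stalled E. coli RNA polymerase. Titrations had no input, 200 uM small-molecule ligand, or an oligonucleotide input, and steps lasted 0.8–1.5 h (lowest) to 10–20 min (highest).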

[1] = Eterna round: R95, input ligand: FMN 200 uM
[2] = Eterna round: R95, input ligand: microRNA oligo, concentration not stated
[3] = Eterna round: R95, input ligand: none
[4] = input ligand: microRNA oligo, concentration not stated

Sequence | apparent KD of MS2 coat protein [1] [nM] | apparent KD of MS2 coat protein [2] [nM] | apparent KD of MS2 coat protein [3] [nM] | apparent KD of MS2 coat protein (input ligand: FMN 200 uM) [nM] | apparent KD of MS2 coat protein (input ligand: none) [nM] | apparent KD of MS2 coat protein [4] [nM]
ACAACAAGCUUUUUGUUCGUAGAACAUGAUGCUCUAGUCACAUGAGGAUCACCCAUGUCAGCCAGUUAGAUAGGUGA [JR_SV3TOV2_Sub064] (puzzle: Sensor v3, turn-off variant 2) | 75.2 | 133 | 81.1 |  |  | 
UAAAGAUAAGGAUAUUGAAGGUUCGACAUGAGGAUCACCCAUGUUAUGUUGGAAAAGGGACAAGAAGGUAUGAAAU [salish99_ex5_r4_207] (Eterna round: R97, puzzle: Exclusion 5) |  |  |  | 35.9 | 37 | 
GCUUGUAGAGGAUAUACGAGGGCCCGAGCGGAUAACACCGCACAUGAGGAUCACCCAUGUAGAAGGCUACCACC [Riquinza] (puzzle: Exclusion 2) |  | 20.8 |  |  |  | 
CUUAUGUGAGGAUAUGGUGUUGGCCACAGGAAAAAGAUCCUCCAGAAGGCACAUGAGGAUCACCCAUGUAGUGA [Jolly's Folly 30 - Jieux - Exclusion 4] (Eterna round: R96, puzzle: Exclusion 4) |  |  |  | 220 | 57.2 | 54.5
GCGCUGUGAGGAUAUUAGUAGUAGAUAAAAUAAACUAUUACUGAGAAGGCACAUGAGGAUCACCCAUGUUGCGC [Eli x4 4.04] (Eterna round: R97, puzzle: Exclusion 4) |  |  |  | 24.7 | 19.6 | 
AGCGGACAAGGAUAUACAUGAGGAUCACCCAUGUACUUAGCAAGUUUGUUUCGUCGAUGUAGAAGGUGUAAUGU [EX3 C.14] (Eterna round: R97, puzzle: Exclusion 3) |  |  |  | 19.4 | 20.2 | 
ACUUUUUGAGGAUAUACAUUGAUUAACAUGAGGAUCACCCAUGUACAAACAUGUAUUUGUGUAGAAGGCAGAAGAA [JR_Ex5_Sub068] (Eterna round: R97, puzzle: Exclusion 5) |  |  |  | 14.9 | 13.2 | 
CCGGAAAUACAGGAUAUCGUAUCGGAUACGAUACGAGAAGGGUAUACAUGAGGAUCACCCAUGUGUCCUACCGG [Fiskers Ex 6 - 51] (Eterna round: R96, puzzle: Exclusion 6) |  |  |  | 30.1 | 26.3 | 20.2
CAGCUGUCAGGAUAUCGUGCAUACAACGAAAGUUCUAUGUGCGAGAAGGGACAUGAGGAUCACCCAUGUUUACG [Omei Ex4 A24] (Eterna round: R97, puzzle: Exclusion 4) |  |  |  | 48 | 28.6 | 
GGUCAACGUGUGAGGAUAUGUCAACCCUGUGGAAAGCAGAAGGCACAUGAGGAUCACCCAUGUAAUAAGAAAAC [Soasois] (Eterna round: R97, puzzle: Brourd's mod of Exclusion 4) |  |  |  | 29.9 | 262 | 
AGAUCUAUCACGAAAGUGAUAGAUCAAAUUAGUUUUUAAACAUGAGGAUCACCCAUGUCCUAGUGGGCUAGUCUUAU [Mat - Sensor v2 - var 2 - Mod - D135] (Eterna round: R96, puzzle: Sensor v2, turn-off variant 2) |  |  |  | 236 | 239 | 167
CCGGAAUAACAGGAUAUAGGAGUCGAUAGACACCUAGAAGGGUUGACAUGAGGAUCACCCAUGUGUCCUACCGG [Fiskers Ex 6 - 81] (puzzle: Exclusion 6) | 756 | 728 | 595 |  |  | 
GUGCGACAUGAGGAUCACCCAUGUCAGGAUAUAUAGAACGAUAACGAAAUCGUUAUCGGUAGAAGGGACGGUGA [Eternabot (L1) Solution 48] (Eterna round: R97, puzzle: Exclusion 1) |  |  |  | 18.6 | 21.4 | 
GACUAUUCGUAGGAUAUACUACUUAGCUAUGGAGUAGAAGGACGAACAUGAGGAUCACCCAUGUGGGACCCGGG [Eternabot (L2) Solution 31] (Eterna round: R97, puzzle: Exclusion 6) |  |  |  | 125 | 81.2 | 
CCAUCGAGUGUGAGGAUAUGCUGUUCGAAAGAGCAGCAGAAGGCACAUGAGGAUCACCCAUGUGGAUACGGUGG [Mat - Exclusion 4 - JL Mod - D82] (puzzle: Brourd's mod of Exclusion 4) |  | 30.6 |  |  |  | 
UGGUCCCUGAAACAUGAGGAUCACCCAUGUAUAAUGAGGACAAAGGAUAUAUCCCACCAGGUAGGGUAGAAGGUUGAACUCUAC [Eternabot solution 42] (Eterna round: R96, puzzle: Exclusion NG 3) |  |  |  | 13.1 | 16.2 | 10.6
GCAGCGUAUGUAGGAUAUCGGUCAGUUUCUGAUCGAGAAGGACAUGAGGAUCACCCAUGUAUAUUCUAGCGUGAGCUAGGCUGC [JL ENG1 3.70] (Eterna round: R96, puzzle: Exclusion NG 1) |  |  |  |  |  | 14.3

Sequence | apparent KD of MS2 coat protein [1] [nM] | apparent KD of MS2 coat protein [2] [nM] | apparent KD of MS2 coat protein [3] [nM] | apparent KD of MS2 coat protein (input ligand: FMN 200 uM) [nM] | apparent KD of MS2 coat protein (input ligand: none) [nM] | apparent KD of MS2 coat protein [4] [nM]
ACAUGAAGAUAGGAUAUCCGCGAAAAUGGUCUAGGAGAAGGGUCUACAUGAGGAUCACCCAUGUAGCAGUGGAU [Eternabot (L1) Solution 79] (Eterna round: R97, puzzle: Exclusion 6) |  |  |  | 14.7 | 16.7 | 
AGAUCGUCAGGAUAUACAUGAGGAUCACCCAUGUACUGUCUAAAUUUGACUGUAAGAUGUAGAAGGGACGAUCG [Exclusion 3 (MOD9 of #1 Marzena11)] (Eterna round: R97, puzzle: Exclusion 3) |  |  |  | 67.3 | 25.8 | 
AGGACAUGAGGAUCACCCAUGUAGUGAGGUGUAUCCGAAGACGAGGAUAUACAGAGGAAAUAUCUGUAGAAGGUGUUAUAAAUU [Atleusan] (Eterna round: R96, puzzle: Exclusion NG 3) |  |  |  | 726 | 766 | 229
GUGAAGUAAGGAUAUACAUGAGGAUCACCCAUGUGGAGGAAGGUGAUGGGAGUAGGUAGUAGAAGGUACGAGGA [JR_Exclu3_Sub064] (puzzle: Exclusion 3) | 115 | 159 | 201 |  |  | 
AGCUGUGGCCAAGGAUAUCUAACCUUAAAUACCGACGUAUAGUCGGACAUGAGGAUCACCCAUGUGGAGAAGGUGGUCUCAGCA [Eli eng2 - 043] (Eterna round: R96, puzzle: Exclusion NG 2) |  |  |  |  |  | 18.3
GAUUAACAAGCGAGAUCCCACAUGAGGAUCACCCAUGUGCUCGUCUUAUAAGGUACUGUGACGAAAGUCACGGUACC [Mat - Sensor, turn-off var - Eli Mod - D5] (Eterna round: R97, puzzle: Sensor, turn-off variant 1) |  |  |  | 13.5 | 15.2 | 
GAGAAAGCAAGCAAGUGAAACAUGAGGAUCACCCAUGUCCUCAUUUGCUCGUCUUAUAAAAGCUAUCGAAAGAUAGC [Mat - Sensor v3 - turn-off var 1 - Eli Mod - D48] (puzzle: Sensor v3, turn-off variant 1) | 13.2 | 139 | 10.3 |  |  | 
AUGUCGGCAGGAUAUACAUGAGGAUCACCCAUGUAAAUUUUUCGUUUAACUUGAAUGUGUAGAAGGGCCAUGAA [Ex3 #68] (Eterna round: R97, puzzle: Exclusion 3) |  |  |  | 30.9 | 33 | 
UGAGCUACAGGAUAUAUGUGGCGACCGUGAGGUCGAAGGUUACAUGAGGAUCACCCAUGUAGAAGGGUAGUUCU [Mat - Exclusion 2 - JL Mod - D20] (Eterna round: R97, puzzle: Exclusion 2) |  |  |  | 311 | 284 | 
UUAUUAUAUGUAGGAUAUGCGUAUUAUUGUUAUGCAGAAGGACAUGAGGAUCACCCAUGUAUAUUAUUGUUAUGUAUUAUAUAU [Title] (Eterna round: R96, puzzle: Exclusion NG 1) |  |  |  |  |  | 26.6
AUUGUUUAUGUAGGAUAUGCCUGGCGUGCCUUCGCAGAAGGACAUGAGGAUCACCCAUGUAUUGCGGUCUGCGUUCAGAUCGCU [salish99_ExNG1_r4_025] (Eterna round: R96, puzzle: Exclusion NG 1) |  |  |  | 75 | 55.4 | 30.6
GUUUAGUGAGGAUAUGUGGCUUCGAUCGUGAGAUCGAGGCUACAGAAGGCACAUGAGGAUCACCCAUGUUCCUA [salish99_ex4_r4_107] (Eterna round: R97, puzzle: Exclusion 4) |  |  |  | 87.7 | 16.5 | 
AGCCACAGAGGAUAUACAUACAUCCAGUGGUUAAGAAUACAACAUGAGGAUCACCCAUGUAGAAGGCUGUGGCA [Omei Ex2 BD B10] (Eterna round: R97, puzzle: Exclusion 2) |  |  |  | 394 | 152 | 
AAUGCCGGUGUCAGGAUAUCCGGAGGGAAACCUCCGGAGAAGGGACAUGAGGAUCACCCAUGUAUGUAACCUGC [AK-MS2ROC-r4-Bmoexclusion4-6] (Eterna round: R97, puzzle: Brourd's mod of Exclusion 4) |  |  |  | 24.9 | 22.2 | 
GACUAGGGAGGAUAUAUUUACAGUGUACCUCGGGUGAUCGCACUUGAGGAUCACCCAAGUAGAAGGCUCGAGGG [EX2 #27] (Eterna round: R97, puzzle: Exclusion 2) |  |  |  | 30 | 35.9 | 
UUUUUGAUAGGAUAUACAUGAGGAUCACCCAUGUGUGACAGGACUGACGCUCUUCAUCGUAGAAGGAUCCGAGC [Eternabot (L1) Solution 97] (Eterna round: R97, puzzle: Exclusion 3) |  |  |  | 27.4 | 30.9 | 
UUAGAUUAUUGAGGAUAUGGAUCUUAUUAUUAACCAGAAGGCAAACUCAACAUGAGGAUCACCCAUGUAUAAAGGGUAUUAGUU [JR_ExcNG1_Sub099] (Eterna round: R96, puzzle: Exclusion NG 1) |  |  |  |  |  | 62.8
